Measured values: patent publication US7262177B2, “Conjugates of glycosylated/galactosylated peptide, bifunctional linker, and nucleotidic monomers/polymers, and related compositions and methods of use” (priority 2000, dated 2007)
Where two headings read alike, the source gives them in different places.

What was measured:
[1] = molecular target: T1, TS (Homo sapiens, UniProt P04818); assay: TS activity in tumor of xenografted mice; format: in vivo, CD-1 nude mice; settings: treated
T1 construct: from tissue; host or cells: subcutaneous Hep G2 xenograft tumour from CD-1 nude mice
T1 sequence (P04818 2-313 limits assumed): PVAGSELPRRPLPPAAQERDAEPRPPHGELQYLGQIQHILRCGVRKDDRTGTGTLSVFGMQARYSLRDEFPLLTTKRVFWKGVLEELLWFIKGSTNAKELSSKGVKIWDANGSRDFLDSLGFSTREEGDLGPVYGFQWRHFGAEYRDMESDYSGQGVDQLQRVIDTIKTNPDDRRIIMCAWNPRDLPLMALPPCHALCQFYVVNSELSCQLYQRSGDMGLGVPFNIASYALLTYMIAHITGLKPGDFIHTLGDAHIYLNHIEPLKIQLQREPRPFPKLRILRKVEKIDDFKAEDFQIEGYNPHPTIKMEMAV
Method: Initial effects of po 1-mer treatment were noticed after about 5 weeks. Overall, however, tumors continued to grow after this point, but at a slower rate than the control. For instance, at 8 weeks post po 1-mer treatment, the average tumor weight of xenografted human hepatomas in nude CD-1 mice was about 7 g, whereas the average tumor weight of the saline control was about 15 g. Histological analysis was performed after 8 weeks in order to compare the tumors of the control cohort with the tumors of po 1-mer-treated nude mice. […] This weight loss may then be due to the tumor burden, rather than the therapeutic treatment, and was continued through week 8.
After the treatment was completed, tumors were analyzed both histologically and for TS activity. […] Therefore, it can be deduced that increasing the dose of po 1-mer increased the efficacy without increasing systemic toxicity.

[2] = molecular target: T2, thymidylate synthase (TS) (Homo sapiens, UniProt P04818); assay: Thymidylate synthase activity in treated TSU cells; format: cell-based; settings: TSU carcinoma cells, 1 μM
T2 construct: endogenous in cells; host or cells: Hep G2
T2 sequence (P04818 2-313 limits assumed): as above
Method: Thymidylate synthase inhibition results in insufficient thymidylate levels for DNA replication and can lead to intracellular signaling processes that ultimately lead to cell death. The activity of this paramount enzyme was determined based on the methods of Keyomarsi et al. (J. Biol. Chem., 268, 15142-15149 (1993)). Briefly, 10^5 Hep G2 or TSU cells were grown in culture for 48 h and then the medium was made to a concentration of 1 μM with either po 1-mer or unconjugated 5FdU. At regular intervals (24 hrs, 48 hrs, 72 hrs and 96 hrs) after treatment, the medium was removed and replaced with medium containing deoxyuridine/[^3H]-deoxyuridine mixtures. Cells were incubated at 37° C. for 30 min. Cell medium was then removed and precipitated with charcoal. The supernatant was then counted to determine the presence of [^3H]-H2O. The measurable release of [^3H] as [^3H]-H2O from deoxyuridine, 5′-monophosphate (dUMP) substrate reflects thymidylate synthase activity.

[3] = tested on: Hep G2 human hepatoma xenografts; assay: Bioefficacy against human hepatoma (Hep G2) xenografts in nude mice; format: in vivo, CD-1 nude mice
From the text: Xenotransplanted tumors have been previously shown to be responsive to 5FU chemotherapy as assayed by direct physical measurement of the tumor (Houghton et al., Biochem. Pharmacol., 36, 1285-1289 (1987)), histological changes and biochemical measurements, such as alpha-fetoprotein (AFP) levels (Lemoine et al., Pathol. Biol. (Paris), 47, 903-910 (1999)) and thymidylate synthase levels (Peters et al., J. Clin Oncol., 12, 2035-2042 (1994)). The xenograft tumors in nude mice are a widely used model for tumor studies that allows for direct measurement of the growth of human tumors. Male CD-1 nude mice (6-8 weeks old, 20-22 g in weight) were used for these bioefficacy studies. An injection of 10^8 Hep G2 cells was made subcutaneously into the subcapsular region of each mouse. Mice were observed daily for tumor formation. After tumors emerged, they were measured twice a week in two dimensions with sliding calipers. When the tumors reached a weight of 100 mg in weight as determined by the formula: [(weight, mg)=(length (mm)×width (mm))^2/2], treatment was initiated (Geran et al., Cancer Chemother. Rep., 3, 51-61 (1972)). Initially, mice were treated with 10 mg/kg dose once/week for 8 weeks. Subsequently, separate cohorts of mice were treated with 15 mg/kg weekly for 8 weeks and finally 10 mg/kg twice weekly for 8 weeks. The impact of treatment upon tumor growth was judged by direct measurement as described above. In addition, tumor progression was tracked by serological measurements, such as AFP levels. AFP levels were assayed weekly following each injection. Blood was taken retro-orbitally from each mouse. AFP levels were assayed immunochemically, using kits supplied by Abbott Laboratories (Waukegan, Ill.) and based on the methods of Wang et al. (Cancer Res., 50, 869s-872s (1990)). Measurements of AFP levels were intended to complement direct physical measurement as an indicator of tumor progression. Generally, serum AFP levels behave as if they reflect tumor mass. However, it should be noted that moderately raised AFP levels have been found in some patients with uncomplicated liver disease. Despite these false positives, serum AFP levels have been successfully used to monitor response to therapy (Johnson, J. Gastroent Hepatol., 14 (Suppl.), s32-s36 (1999)) especially in the tumor-bearing nude mice, where the human tumor is the only source of human AFP. Results from such assays provide an early indication of HCC potential before it is manifested as physical tumor growth. The data generated by the above experiments should aid in the derivation of starting doses for larger mammal testing and subsequent clinical studies.

[4] = Serum stability of 35S labeled po 1-mer conjugate, PAGE analysis; format: in vitro ADME; settings: human serum, 37° C.
Method: Studies were carried out at physiological conditions. The analyses were accomplished using reversed-phase HPLC and PAGE methods. The raw data are presented in table format (Tables 1, 2 and 3). The serum half-life calculated is t1/2=1/k (0.693), derived from the [A]=[A0]e^−kt, where [A0] is the original amount of substrate, [A] is the measured substrate level, t is time (min), and k is the first-order rate constant.
Reaction Conditions: 2 μl of human serum were added to 200,000 cpm of dry ^35S labeled po 1-mer conjugate. Radiolabeled conjugate was incubated at 37° C. in the presence of this serum for the allotted time periods (15 min, 30 min, 60 min, 120 min, 240 min). The reaction mixture was diluted with 2 μl of H2O, then 4 μl of loading buffer. The degradation pattern was observed through autoradiography of a 20% polyacylamide gel (0.75 mm) run at 800 V for 90 min. Bands were quantified through the use of a Fujix BAS 2000 Phosphorimager (Table 3).

[5] = 10 mg/kg twice weekly, after 3 weeks
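Throughout, for % injected dose in LIVER: male CD-1 mice given radiolabeled test agent intravenously, organs removed at each time point and dissolved, radioactivity per organ measured by scintillation counting with efficiency correction.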

Structure (SMILES): CC(=O)N[C@H]1[C@H](OCCCCCCNC(=O)CC[C@H](NC(=O)CC[C@H](NC(=O)[C@H](Cc2ccc(O)cc2)NC(=O)C2CCC(CN3C(=O)CC(SCCCCCCOP(=O)(O)OC[C@H]4O[C@@H](n5cc(F)c(=O)[nH]c5=O)C[C@@H]4O)C3=O)CC2)C(=O)NCCCCCCO[C@@H]2O[C@H](CO)[C@H](O)[C@H](O)[C@H]2NC(C)=O)C(=O)NCCCCCCO[C@@H]2O[C@H](CO)[C@H](O)[C@H](O)[C@H]2NC(C)=O)O[C@H](CO)[C@H](O)[C@@H]1O (stereo partly shown) [po 1-mer, YEE(ahGalNAc)3-SMCC-poFU]
- TS activity, COUNTS/MG PROTEIN ([1]; weekly 10 mg/kg): 17641 counts/mg protein
- TS activity, COUNTS/MG PROTEIN ([1]; weekly 15 mg/kg): 8591 counts/mg protein
- inhibition of TS activity [2]: no inhibitory effect
- body weight [3, 5]: moderate reduction in body weight
- tumor progression [3, 5]: significant reduction in tumor progression
- tumors ([3]; 10 mg/kg twice weekly, after 6 weeks): beyond detection
- effect on tumor growth ([3]; 10 mg/kg weekly for 8 weeks): mild inhibition of tumor growth
- histological analysis of tumors ([3]; 10 mg/kg weekly, after 8 weeks): reduced mitotic index and increased amount of necrotic tissue
- average tumor weight ([3]; 10 mg/kg weekly, at 8 weeks (saline control about 15 g)): about 7 g
- body weight (clinical toxicity) ([3]; 15 mg/kg weekly): steady weight gain equivalent to that of a non-tumor bearing mice
- tumor burden ([3]; 15 mg/kg weekly, after 2 additional injections (7)): tumor burden was eradicated in one mouse and the tumor size was reduced in the others
- tumor progression ([3]; 15 mg/kg weekly, after 5 injections): almost static
- histological analysis of tumor ([3]; 15 mg/kg weekly, after treatment): very low mitotic index and extensive necrosis
- % injected dose in LIVER (15 MIN after tail vein i.v.): Fifty-seven
- % injected dose in LIVER (60 MIN after tail vein i.v.): 25%
- % injected dose in LIVER (480 MIN after tail vein i.v.): virtually no
- Normalized Area ([4]; 0 min): 0
- Pixel Area ([4]; 0 min): 42.57
- Standardized Area ([4]; 0 min): 1
- Normalized Area ([4]; 15 min): 0.1486
- Pixel Area ([4]; 15 min): 57.43
- Standardized Area ([4]; 15 min): 0.8514
- Normalized Area ([4]; 30 min): 0.2404
- Pixel Area ([4]; 30 min): 66.61
- Standardized Area ([4]; 30 min): 0.7596
- Normalized Area ([4]; 60 min): 0.3435
- Pixel Area ([4]; 60 min): 76.92
- Standardized Area ([4]; 60 min): 0.6565
- Normalized Area ([4]; 120 min): 0.39
- Pixel Area ([4]; 120 min): 81.57
- Standardized Area ([4]; 120 min): 0.61
- Normalized Area ([4]; 240 min): 0.3756
- Pixel Area ([4]; 240 min): 80.13
- Standardized Area ([4]; 240 min): 0.6244
